Measurements: PMC10700650, “Enhancing the thermostability and activity of glycosyltransferase UGT76G1 via computational design” (Communications Chemistry, 2023)

Key:
[1] = target: 76_4 (designed UGT76G1 variant) (Stevia rebaudiana, UniProt Q6VAB4, L101F/S192K/R297W/V300K/S305P/G348P, form not given); conditions: 1 mM UDPG; 0-300 uM ST; ST to RebA conversion; 2 min time course
purified protein = substrate: C=C1C[C@@]23CC[C@H]4[C@@](C)(CCC[C@@]4(C)C(=O)O[C@@H]4O[C@H](CO)[C@@H](O)[C@H](O)[C@H]4O)[C@@H]2CC[C@]1(O[C@@H]1O[C@H](CO)[C@@H](O)[C@H](O)[C@H]1O[C@@H]1O[C@H](CO)[C@@H](O)[C@H](O)[C@H]1O)C3; experiment: purified protein; conditions: 1 mM UDPG; 0-300 uM ST; ST to RebA conversion; 2 min time course

Chain of 76_4 (designed UGT76G1 variant) (Q6VAB4 12-458 L101F/S192K/R297W/V300K/S305P/G348P, form open): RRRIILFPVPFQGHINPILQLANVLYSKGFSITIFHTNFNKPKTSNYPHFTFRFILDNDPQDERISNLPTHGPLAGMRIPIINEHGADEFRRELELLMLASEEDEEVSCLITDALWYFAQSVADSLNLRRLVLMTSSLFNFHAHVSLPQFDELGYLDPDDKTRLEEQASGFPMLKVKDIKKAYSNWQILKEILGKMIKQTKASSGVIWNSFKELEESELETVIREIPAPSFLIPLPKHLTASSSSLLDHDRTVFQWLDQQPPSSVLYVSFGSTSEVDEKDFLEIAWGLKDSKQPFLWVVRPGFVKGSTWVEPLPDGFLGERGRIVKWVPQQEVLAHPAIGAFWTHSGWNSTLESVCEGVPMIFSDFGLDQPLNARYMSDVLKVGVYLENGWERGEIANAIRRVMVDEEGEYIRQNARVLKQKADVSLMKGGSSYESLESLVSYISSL

Row | Km [1] | Molecule | Km (purified protein) | kcat (purified protein)
1 | 34.5 ± 3 µM | C=C1C[C@@]23CC[C@H]4[C@@](C)(CCC[C@@]4(C)C(=O)O[C@@H]4O[C@H](CO)[C@@H](O)[C@H](O)[C@H]4O)[C@@H]2CC[C@]1(O[C@@H]1O[C@H](CO)[C@@H](O)[C@H](O)[C@H]1O[C@@H]1O[C@H](CO)[C@@H](O)[C@H](O)[C@H]1O)C3 [ST, stevioside] | – | –
2 | – | UGT76G1 (WT) (Stevia rebaudiana) (protein) MENKTETTVRRRRRIILFPVPFQGHINPILQLANVLYSKGFSITIFHTNFNKPKTSNYPHFTFRFILDNDPQDERISNLPTHGPLAGMRIPIINEHGADELRRELELLMLASEEDEEVSCLITDALWYFAQSVADSLNLRRLVLMTSSLFNFHAHVSLPQFDELGYLDPDDKTRLEEQASGFPMLKVKDIKSAYSNWQILKEILGKMIKQTKASSGVIWNSFKELEESELETVIREIPAPSFLIPLPKHLTASSSSLLDHDRTVFQWLDQQPPSSVLYVSFGSTSEVDEKDFLEIARGLVDSKQSFLWVVRPGFVKGSTWVEPLPDGFLGERGRIVKWVPQQEVLAHGAIGAFWTHSGWNSTLESVCEGVPMIFSDFGLDQPLNARYMSDVLKVGVYLENGWERGEIANAIRRVMVDEEGEYIRQNARVLKQKADVSLMKGGSSYESLESLVSYISSL | 92.0 ± 5.3 µM | 0.288 ± 0.0267 s⁻¹
